These results are taken from publication PMC7863765.

For assay [1], the target named is polyphosphorylated full-length SARS-CoV-2 nucleocapsid protein pN.1-419 (SARS-CoV-2) (UniProt P0DTC9). The experiment in a line: SEC-MALS. (In general: Size exclusion chromatography separates by hydrodynamic size, large species first.)
Assay [2] has the same target. The experiment in a line: SEC.

The Kd is a measure of binding affinity in units of concentration. Turning to “untagged full-length human 14-3-3γ (from UniProt P61981 1-247) (natural protein)”, the stoichiometry N (14-3-3γ chains per pN.1-419 chain (2:2)) in assay [1] and in assay [2] was 1 each time. This substance displayed a dissociation constant (Kd) in assay [2] of 1500 nM.
